Assay results as given in FireProtDB (doi:10.1021/bi010565n).

B1: Guanyl-specific ribonuclease T1, P00651 (parent)
chain: MMYSKLLTLTTLLLPTALALPSLVERACDYTCGSNCYSSSDVSTAQAAGYQLHEDGETVGSNSYPHKYNNYEGFDFSVSSPYYEWPILSSGDVYSGGSPGADRVVFNENNQLAGVITHTGASGNNFVECT

Variants of: B1
Details: Aspergillus oryzae (strain ATCC 42149 / RIB 40); pH 7; 25 °C; Urea; CD; MOPS 30 mM; structure 1RN1; whole UniProt chain shown

Variant | ddG of mutation (higher = less stable) [kcal/mol]
MMYSKLLTLTTLLLPTALALPSLVERACDYTCGSNCYSSSDVSTAQAAGYQLHEDGETVGSNSYPHKYNNYEGFDFSVSSPYYEWPILSSGDVYSGGSPGADRCVFNENNQLAGVITHTGASGNNFVECT [V104C] | 3.67
MMYSKLLTLTTLLLPTALALPSLVERACDYTCGSNCYSSSDVSTAQAAGYQLHEDGETVGSNSYPHKYNNYEGFDFSVSSPYYEWPILSSGDVYSGGSPGADRAVFNENNQLAGVITHTGASGNNFVECT [V104A] | 4.08

Same assay, conditions: Aspergillus oryzae (strain ATCC 42149 / RIB 40); pH 7; Thermal; CD; MOPS 30 mM; structure 1RN1; whole UniProt chain shown

Variant | Tm [°C] | change of melting temperature, mutant - wild type (higher = more stable) [°C]
MMYSKLLTLTTLLLPTALALPSLVERACDYTCGSNCYSSSDVSTAQAAGYQLHEDGETVGSNSYPHKYNNYEGFDFSVSSPYYEWPILSSGDVYSGGSPGADRSVFNENNQLAGVITHTGASGNNFVECT [V104S] | 34.6 | -16.6
MMYSKLLTLTTLLLPTALALPSLVERACDYTCGSNCYSSSDVSTAQAAGYQLHEDGETVGSNSYPHKYNNYEGFDFSVSSPYYEWPILSSGDVYSGGSPGADRAVFNENNQLAGVITHTGASGNNFVECT [V104A] | 43.3 | -7.9

Same assay, conditions: Aspergillus oryzae (strain ATCC 42149 / RIB 40); pH 7; 25 °C; Thermal; DSC; MOPS 30 mM; reversible: yes(0.98); structure 1RN1; whole UniProt chain shown

Variant | ddG of mutation (higher = less stable) [kcal/mol] | heat capacity change of unfolding [kcal/mol/K]
MMYSKLLTLTTLLLPTALALPSLVERACDYTCGSNCYSSSDVSTAQAAGYQLHEDGETVGSNSYPHKYNNYEGFDFSVSSPYYEWPILSSGDVYSGGSPGADRTVFNENNQLAGVITHTGASGNNFVECT [V104T] | 3.1 | 1.29

Same assay, conditions: Aspergillus oryzae (strain ATCC 42149 / RIB 40); pH 7; 25 °C; Urea; CD; MOPS 30 mM; reversible: yes(0.98); structure 1RN1; whole UniProt chain shown

Variant | ddG of mutation (higher = less stable) [kcal/mol]
MMYSKLLTLTTLLLPTALALPSLVERACDYTCGSNCYSSSDVSTAQAAGYQLHEDGETVGSNSYPHKYNNYEGFDFSVSSPYYEWPILSSGDVYSGGSPGADRTVFNENNQLAGVITHTGASGNNFVECT [V104T] | 4.08

Same assay, conditions: Aspergillus oryzae (strain ATCC 42149 / RIB 40); pH 7; Thermal; CD; MOPS 30 mM; reversible: yes(0.98); structure 1RN1; whole UniProt chain shown

Variant | Tm [°C] | change of melting temperature, mutant - wild type (higher = more stable) [°C]
MMYSKLLTLTTLLLPTALALPSLVERACDYTCGSNCYSSSDVSTAQAAGYQLHEDGETVGSNSYPHKYNNYEGFDFSVSSPYYEWPILSSGDVYSGGSPGADRTVFNENNQLAGVITHTGASGNNFVECT [V104T] | 41.4 | -9.8

Same assay, conditions: Aspergillus oryzae (strain ATCC 42149 / RIB 40); pH 7; Thermal; DSC; MOPS 30 mM; reversible: yes(0.98); structure 1RN1; whole UniProt chain shown

Variant | Tm [°C] | change of melting temperature, mutant - wild type (higher = more stable) [°C]
MMYSKLLTLTTLLLPTALALPSLVERACDYTCGSNCYSSSDVSTAQAAGYQLHEDGETVGSNSYPHKYNNYEGFDFSVSSPYYEWPILSSGDVYSGGSPGADRTVFNENNQLAGVITHTGASGNNFVECT [V104T] | 40.2 | -11.3

Same assay, conditions: Aspergillus oryzae (strain ATCC 42149 / RIB 40); pH 7; 25 °C; Thermal; DSC; MOPS 30 mM; reversible: yes(0.18); structure 1RN1; whole UniProt chain shown

Variant | ddG of mutation (higher = less stable) [kcal/mol] | heat capacity change of unfolding [kcal/mol/K]
MMYSKLLTLTTLLLPTALALPSLVERACDYTCGSNCYSSSDCSTAQAAGYQLHEDGETVGSNSYPHKYNNYEGFDFSVSSPYYEWPILSSGDVYSGGSPGADRVVFNENNQLAGVITHTGASGNNFVECT [V42C] | 4.68 | 1.29

Same assay, conditions: Aspergillus oryzae (strain ATCC 42149 / RIB 40); pH 7; 25 °C; Urea; CD; MOPS 30 mM; reversible: yes(0.18); structure 1RN1; whole UniProt chain shown

Variant | ddG of mutation (higher = less stable) [kcal/mol]
MMYSKLLTLTTLLLPTALALPSLVERACDYTCGSNCYSSSDCSTAQAAGYQLHEDGETVGSNSYPHKYNNYEGFDFSVSSPYYEWPILSSGDVYSGGSPGADRVVFNENNQLAGVITHTGASGNNFVECT [V42C] | 5.3

Same assay, conditions: Aspergillus oryzae (strain ATCC 42149 / RIB 40); pH 7; Thermal; CD; MOPS 30 mM; reversible: yes(0.18); structure 1RN1; whole UniProt chain shown

Variant | Tm [°C] | change of melting temperature, mutant - wild type (higher = more stable) [°C]
MMYSKLLTLTTLLLPTALALPSLVERACDYTCGSNCYSSSDCSTAQAAGYQLHEDGETVGSNSYPHKYNNYEGFDFSVSSPYYEWPILSSGDVYSGGSPGADRVVFNENNQLAGVITHTGASGNNFVECT [V42C] | 41.6 | -9.6

Same assay, conditions: Aspergillus oryzae (strain ATCC 42149 / RIB 40); pH 7; Thermal; DSC; MOPS 30 mM; reversible: yes(0.18); structure 1RN1; whole UniProt chain shown

Variant | Tm [°C] | change of melting temperature, mutant - wild type (higher = more stable) [°C]
MMYSKLLTLTTLLLPTALALPSLVERACDYTCGSNCYSSSDCSTAQAAGYQLHEDGETVGSNSYPHKYNNYEGFDFSVSSPYYEWPILSSGDVYSGGSPGADRVVFNENNQLAGVITHTGASGNNFVECT [V42C] | 42.6 | -8.9
